B1: CPEB3 Ribozyme (parent)
chain: GGGGGCCACAGCAGAAGCGUUCACGUCGCGGCCCCUGUCAGAUUCUGGUGAAUCUGCGAAUUCUGCUGU

Variants of: B1
Assay: self-cleavage, relative activity (ratio to wild type); higher = more cleavage; co-transcriptional

Going from G30U G31U to G31U C57G, the self-cleavage rises from 0.18 to 0.236.

First: C32U C39A
Second: C32U C39G
The self-cleavage of the first is lower: 0.915 for the first, 0.996 for the second.

First: G31U G65A
Second: C32G C45U
The self-cleavage of the first is lower: 0.517 for the first, 0.573 for the second.

Compared with C32G C45A, G30C U36C is lower in self-cleavage: 0.381 for the first, 0.273 for the second.

Going from G30C U53A to C32A C33G, the self-cleavage falls from 0.437 to 0.258.

First: C32U A40U
Second: C32U A40C
The self-cleavage of the first is higher: 0.871 for the first, 0.734 for the second.

Compared with C32U A40G, G31C C35G is lower in self-cleavage: 0.95 for the first, 0.141 for the second.

First: G31C G68A
Second: G30C C32U
The self-cleavage of the first is lower: 0.515 for the first, 0.636 for the second.

First: G30C C32G
Second: G30C G31U
The self-cleavage of the first is higher: 0.225 for the first, 0.224 for the second.

Compared with C32G G68U, G31C U67C is lower in self-cleavage: 0.815 for the first, 0.358 for the second.

First: G30U G68U
Second: G30U G68A
The self-cleavage of the first is lower: 0.78 for the first, 0.88 for the second.

Going from C32A A60G to G31A A42C, the self-cleavage rises from 0.454 to 0.601.

Going from G30C C39G to G30C A40U, the self-cleavage falls from 0.403 to 0.296.

Compared with C32U U61A, C32G U49G is lower in self-cleavage: 0.893 for the first, 0.371 for the second.

Compared with G31U A52C, C32G A52G is lower in self-cleavage: 0.556 for the first, 0.364 for the second.

First: C32G A52U
Second: G30U G37U
The self-cleavage of the first is higher: 0.48 for the first, 0.166 for the second.

Compared with C32U U53C, G30C G65A is lower in self-cleavage: 0.875 for the first, 0.459 for the second.

Compared with G30C G65U, G30C U64G is higher in self-cleavage: 0.371 for the first, 0.455 for the second.

Compared with G30C U64A, G30C U64C is higher in self-cleavage: 0.467 for the first, 0.478 for the second.

Compared with G31C G50A, G31A G58U is higher in self-cleavage: 0.214 for the first, 0.974 for the second.

First: G31A G58C
Second: G31A U46C
The self-cleavage of the first is lower: 0.812 for the first, 0.9 for the second.

Going from G31A U46G to G31U G68U, the self-cleavage rises from 0.962 to 0.974.

Going from G31U G68C to G30C U43A, the self-cleavage falls from 0.958 to 0.438.

Compared with C32A C35G, C32A C35U is higher in self-cleavage: 0.163 for the first, 0.333 for the second.

First: G30C A51U
Second: G31C U55G
The self-cleavage of the first is higher: 0.61 for the first, 0.136 for the second.

Going from C32A G58U to G30C U61C, the self-cleavage falls from 0.914 to 0.242.

Going from G30C U61A to G31U C54A, the self-cleavage rises from 0.258 to 0.306.

First: G30C U67G
Second: G30C U67C
The self-cleavage of the first is higher: 0.94 for the first, 0.883 for the second.

Going from G31U U53C to C32A C45U, the self-cleavage rises from 0.354 to 0.753.

Going from C32A C45A to C32A A59U, the self-cleavage falls from 0.586 to 0.445.

Going from G31U G50A to G31C C32G, the self-cleavage falls from 0.758 to 0.249.

First: C32U C34G
Second: C32U C34U
The self-cleavage of the first is lower: 0.413 for the first, 0.924 for the second.

Compared with G31C U44C, G30U U67G is higher in self-cleavage: 0.27 for the first, 0.724 for the second.

Going from G30U U67C to G30C G50A, the self-cleavage falls from 0.624 to 0.621.

Compared with G30C G50U, G30C G50C is lower in self-cleavage: 0.679 for the first, 0.536 for the second.

Compared with G30C C35U, G30C C35A is lower in self-cleavage: 0.398 for the first, 0.254 for the second.

Going from C32A C63A to C32A G47U, the self-cleavage rises from 0.317 to 0.897.

First: G31U G41C
Second: G31U G41A
The self-cleavage of the first is lower: 0.283 for the first, 0.348 for the second.

First: C32G G56A
Second: C32G G56C
The self-cleavage of the first is higher: 0.354 for the first, 0.218 for the second.

Going from C32G G56U to C32U G56C, the self-cleavage rises from 0.308 to 0.858.

Compared with G30U U69C, G30U U69G is lower in self-cleavage: 0.865 for the first, 0.792 for the second.

First: G30U C63U
Second: G31A C39A
The self-cleavage of the first is lower: 0.279 for the first, 0.494 for the second.

Compared with C32U G58U, C32U G58C is lower in self-cleavage: 0.995 for the first, 0.963 for the second.

Going from G30U A60G to G31A G48C, the self-cleavage rises from 0.176 to 0.9.

Going from G31A G48A to G31U A42U, the self-cleavage falls from 0.945 to 0.485.

First: C32G U46C
Second: G30U G47C
The self-cleavage of the first is higher: 0.594 for the first, 0.395 for the second.

Compared with G30U G47A, C32U U67C is higher in self-cleavage: 0.436 for the first, 0.959 for the second.

First: C32U U67G
Second: G31U C63G
The self-cleavage of the first is higher: 1.04 for the first, 0.454 for the second.

First: G31U C63A
Second: G31C G65C
The self-cleavage of the first is higher: 0.25 for the first, 0.185 for the second.

Compared with G31A U38G, G31A U38A is higher in self-cleavage: 0.245 for the first, 0.726 for the second.

First: G31U G37A
Second: G31C U64G
The self-cleavage of the first is lower: 0.206 for the first, 0.251 for the second.

First: G30A U69G
Second: G31C A59G
The self-cleavage of the first is higher: 1.01 for the first, 0.255 for the second.

Compared with G31U G58A, G31U G58U is higher in self-cleavage: 0.482 for the first, 0.86 for the second.

First: G30C U44G
Second: G30C U44A
The self-cleavage of the first is lower: 0.549 for the first, 0.594 for the second.

Going from G30C U44C to G31C C57U, the self-cleavage falls from 0.466 to 0.184.

First: G31C C57A
Second: G30C G41C
The self-cleavage of the first is lower: 0.163 for the first, 0.232 for the second.

First: G30C G41U
Second: G31C A42C
The self-cleavage of the first is higher: 0.336 for the first, 0.227 for the second.

Compared with G31A C35A, G31A C35U is higher in self-cleavage: 0.232 for the first, 0.522 for the second.

First: G30U U62A
Second: G30U A42G
The self-cleavage of the first is lower: 0.2 for the first, 0.27 for the second.

Going from G31U C33A to G30U A52U, the self-cleavage rises from 0.235 to 0.342.

Compared with C32U U55C, C32U U64C is higher in self-cleavage: 0.837 for the first, 0.899 for the second.

Going from C32U U64A to G31C C33U, the self-cleavage falls from 0.992 to 0.45.

Going from C32G A60C to C32G A60U, the self-cleavage falls from 0.194 to 0.19.

Compared with G31A C66U, G31A C66A is lower in self-cleavage: 0.913 for the first, 0.7 for the second.

Going from C32U U44C to C32U U44G, the self-cleavage rises from 0.938 to 0.941.

Going from C32G G48C to G31A U53G, the self-cleavage falls from 0.604 to 0.573.

Going from C32G C63U to C32G C63G, the self-cleavage falls from 0.358 to 0.233.

Compared with C32U G48A, C32U G48U is lower in self-cleavage: 1 for the first, 0.964 for the second.

Compared with C32U G48C, C32U U38A is lower in self-cleavage: 0.984 for the first, 0.947 for the second.

Compared with C32U U38G, G30C C54A is higher in self-cleavage: 0.294 for the first, 0.346 for the second.

Going from C32A G41C to C32A U62G, the self-cleavage rises from 0.322 to 0.324.

First: C32A U62A
Second: G30C C45G
The self-cleavage of the first is lower: 0.281 for the first, 0.578 for the second.

Going from G31A U69A to G31A U69C, the self-cleavage rises from 0.991 to 1.03.

Compared with G30C A42U, C32G G50A is higher in self-cleavage: 0.41 for the first, 0.554 for the second.

Going from G31A C57G to G30C U46C, the self-cleavage rises from 0.254 to 0.613.

Going from G30C U46A to G30U G56U, the self-cleavage falls from 0.706 to 0.231.

Compared with G30U C45U, G30U C45A is higher in self-cleavage: 0.329 for the first, 0.335 for the second.

First: G31C U69C
Second: G31C U69A
The self-cleavage of the first is higher: 0.451 for the first, 0.381 for the second.

Compared with G31U A40U, C32U A52C is higher in self-cleavage: 0.352 for the first, 0.913 for the second.

Compared with G31U U64G, G31A G65C is higher in self-cleavage: 0.479 for the first, 0.539 for the second.

Compared with G31A G65U, G31A G65A is higher in self-cleavage: 0.594 for the first, 0.711 for the second.

Compared with G30U U61G, G30U U61A is lower in self-cleavage: 0.215 for the first, 0.177 for the second.

Going from C32A U53A to G30C G48U, the self-cleavage rises from 0.501 to 0.706.

Variant C32G U44C has a self-cleavage of 0.452.
